This data set addresses tau 2N4R wild type (tau-441) (human, UniProt P10636-8 1-441). In words: EMSA. (In general: Mobility shift assays separate free from complexed probe on a gel.)

B1: 24-bp duplex (dsDNA)
DNA 1: TCGACACGGAAATGTTGAATACTA
DNA 2: TAGTATTCAACATTTCCGTGTCGA
As to B1, the binding result is “binds”.

The values are drawn from doi:10.1101/2024.09.24.614852.
